B1: Compound 31 (peptide)
peptide: H-Y[Aib]EGTFTSDYSIYLDKK([γGlu-C16 diacid])AQRAFVNWLLA[Aib]K-NH2
SMILES: CC[C@H](C)[C@H](NC(=O)[C@H](CO)NC(=O)[C@H](Cc1ccc(O)cc1)NC(=O)[C@H](CC(=O)O)NC(=O)[C@H](CO)NC(=O)[C@@H](NC(=O)[C@H](Cc1ccccc1)NC(=O)[C@@H](NC(=O)CNC(=O)[C@H](CCC(=O)O)NC(=O)C(C)(C)NC(=O)[C@@H](N)Cc1ccc(O)cc1)[C@@H](C)O)[C@@H](C)O)C(=O)N[C@@H](Cc1ccc(O)cc1)C(=O)N[C@@H](CC(C)C)C(=O)N[C@@H](CC(=O)O)C(=O)N[C@@H](CCCCN)C(=O)N[C@@H](CCCCNC(=O)CC[C@H](NC(=O)CCCCCCCCCCCCCCC(=O)O)C(=O)O)C(=O)N[C@@H](C)C(=O)N[C@@H](CCC(N)=O)C(=O)N[C@@H](CCCNC(=N)N)C(=O)N[C@@H](C)C(=O)N[C@@H](Cc1ccccc1)C(=O)N[C@H](C(=O)N[C@@H](CC(N)=O)C(=O)N[C@@H](Cc1c[nH]c2ccccc12)C(=O)N[C@@H](CC(C)C)C(=O)N[C@@H](CC(C)C)C(=O)N[C@@H](C)C(=O)NC(C)(C)C(=O)N[C@@H](CCCCN)C(N)=O)C(C)C
B2: Compound 35 (peptide)
peptide: H-Y[Aib]EGTFTSDYSIYLDKK([γGlu-Palmitoyl])AQRAFVNWLLA[Aib]KPSSGAPPPS-NH2
SMILES: CCCCCCCCCCCCCCCC(=O)N[C@@H](CCC(=O)NCCCC[C@H](NC(=O)[C@H](CCCCN)NC(=O)[C@H](CC(=O)O)NC(=O)[C@H](CC(C)C)NC(=O)[C@H](Cc1ccc(O)cc1)NC(=O)[C@@H](NC(=O)[C@H](CO)NC(=O)[C@H](Cc1ccc(O)cc1)NC(=O)[C@H](CC(=O)O)NC(=O)[C@H](CO)NC(=O)[C@@H](NC(=O)[C@H](Cc1ccccc1)NC(=O)[C@@H](NC(=O)CNC(=O)[C@H](CCC(=O)O)NC(=O)C(C)(C)NC(=O)[C@@H](N)Cc1ccc(O)cc1)[C@@H](C)O)[C@@H](C)O)[C@@H](C)CC)C(=O)N[C@@H](C)C(=O)N[C@@H](CCC(N)=O)C(=O)N[C@@H](CCCNC(=N)N)C(=O)N[C@@H](C)C(=O)N[C@@H](Cc1ccccc1)C(=O)N[C@H](C(=O)N[C@@H](CC(N)=O)C(=O)N[C@@H](Cc1c[nH]c2ccccc12)C(=O)N[C@@H](CC(C)C)C(=O)N[C@@H](CC(C)C)C(=O)N[C@@H](C)C(=O)NC(C)(C)C(=O)N[C@@H](CCCCN)C(=O)N1CCC[C@H]1C(=O)N[C@@H](CO)C(=O)N[C@@H](CO)C(=O)NCC(=O)N[C@@H](C)C(=O)N1CCC[C@H]1C(=O)N1CCC[C@H]1C(=O)N1CCC[C@H]1C(=O)N[C@@H](CO)C(N)=O)C(C)C)C(=O)O
B3: Compound 33 (peptide)
peptide: H-Y[Aib]EGTFTSDYSIYLDKK([γGlu-Palmitoyl])AQRAFVEWLLAQGPSSGAPPPS-NH2
SMILES: CCCCCCCCCCCCCCCC(=O)N[C@@H](CCC(=O)NCCCC[C@H](NC(=O)[C@H](CCCCN)NC(=O)[C@H](CC(=O)O)NC(=O)[C@H](CC(C)C)NC(=O)[C@H](Cc1ccc(O)cc1)NC(=O)[C@@H](NC(=O)[C@H](CO)NC(=O)[C@H](Cc1ccc(O)cc1)NC(=O)[C@H](CC(=O)O)NC(=O)[C@H](CO)NC(=O)[C@@H](NC(=O)[C@H](Cc1ccccc1)NC(=O)[C@@H](NC(=O)CNC(=O)[C@H](CCC(=O)O)NC(=O)C(C)(C)NC(=O)[C@@H](N)Cc1ccc(O)cc1)[C@@H](C)O)[C@@H](C)O)[C@@H](C)CC)C(=O)N[C@@H](C)C(=O)N[C@@H](CCC(N)=O)C(=O)N[C@@H](CCCNC(=N)N)C(=O)N[C@@H](C)C(=O)N[C@@H](Cc1ccccc1)C(=O)N[C@H](C(=O)N[C@@H](CCC(=O)O)C(=O)N[C@@H](Cc1c[nH]c2ccccc12)C(=O)N[C@@H](CC(C)C)C(=O)N[C@@H](CC(C)C)C(=O)N[C@@H](C)C(=O)N[C@@H](CCC(N)=O)C(=O)NCC(=O)N1CCC[C@H]1C(=O)N[C@@H](CO)C(=O)N[C@@H](CO)C(=O)NCC(=O)N[C@@H](C)C(=O)N1CCC[C@H]1C(=O)N1CCC[C@H]1C(=O)N1CCC[C@H]1C(=O)N[C@@H](CO)C(N)=O)C(C)C)C(=O)O
B4: Compound 34 (peptide)
peptide: H-Y[Aib]EGTFTSDYSIYLDEK([γGlu-Palmitoyl])AAKEFIEWLESA-NH2
SMILES: CCCCCCCCCCCCCCCC(=O)N[C@@H](CCC(=O)NCCCC[C@H](NC(=O)[C@H](CCC(=O)O)NC(=O)[C@H](CC(=O)O)NC(=O)[C@H](CC(C)C)NC(=O)[C@H](Cc1ccc(O)cc1)NC(=O)[C@@H](NC(=O)[C@H](CO)NC(=O)[C@H](Cc1ccc(O)cc1)NC(=O)[C@H](CC(=O)O)NC(=O)[C@H](CO)NC(=O)[C@@H](NC(=O)[C@H](Cc1ccccc1)NC(=O)[C@@H](NC(=O)CNC(=O)[C@H](CCC(=O)O)NC(=O)C(C)(C)NC(=O)[C@@H](N)Cc1ccc(O)cc1)[C@@H](C)O)[C@@H](C)O)[C@@H](C)CC)C(=O)N[C@@H](C)C(=O)N[C@@H](C)C(=O)N[C@@H](CCCCN)C(=O)N[C@@H](CCC(=O)O)C(=O)N[C@@H](Cc1ccccc1)C(=O)N[C@H](C(=O)N[C@@H](CCC(=O)O)C(=O)N[C@@H](Cc1c[nH]c2ccccc12)C(=O)N[C@@H](CC(C)C)C(=O)N[C@@H](CCC(=O)O)C(=O)N[C@@H](CO)C(=O)N[C@@H](C)C(N)=O)[C@@H](C)CC)C(=O)O
B5: Compound 32 (peptide)
peptide: H-Y[Aib]EGTFTSDYSI[Aib]LDKK([γGlu-Palmitoyl])AQRAFVEWLLAQGPSSGAPPPS-NH2
SMILES: CCCCCCCCCCCCCCCC(=O)N[C@@H](CCC(=O)NCCCC[C@H](NC(=O)[C@H](CCCCN)NC(=O)[C@H](CC(=O)O)NC(=O)[C@H](CC(C)C)NC(=O)C(C)(C)NC(=O)[C@@H](NC(=O)[C@H](CO)NC(=O)[C@H](Cc1ccc(O)cc1)NC(=O)[C@H](CC(=O)O)NC(=O)[C@H](CO)NC(=O)[C@@H](NC(=O)[C@H](Cc1ccccc1)NC(=O)[C@@H](NC(=O)CNC(=O)[C@H](CCC(=O)O)NC(=O)C(C)(C)NC(=O)[C@@H](N)Cc1ccc(O)cc1)[C@@H](C)O)[C@@H](C)O)[C@@H](C)CC)C(=O)N[C@@H](C)C(=O)N[C@@H](CCC(N)=O)C(=O)N[C@@H](CCCNC(=N)N)C(=O)N[C@@H](C)C(=O)N[C@@H](Cc1ccccc1)C(=O)N[C@H](C(=O)N[C@@H](CCC(=O)O)C(=O)N[C@@H](Cc1c[nH]c2ccccc12)C(=O)N[C@@H](CC(C)C)C(=O)N[C@@H](CC(C)C)C(=O)N[C@@H](C)C(=O)N[C@@H](CCC(N)=O)C(=O)NCC(=O)N1CCC[C@H]1C(=O)N[C@@H](CO)C(=O)N[C@@H](CO)C(=O)NCC(=O)N[C@@H](C)C(=O)N1CCC[C@H]1C(=O)N1CCC[C@H]1C(=O)N1CCC[C@H]1C(=O)N[C@@H](CO)C(N)=O)C(C)C)C(=O)O
B6: Compound 27 (peptide)
peptide: H-Y[Aib]EGTFTSDYSIYLDKKAEKAFVNWLLA[Aib]K-NH2
SMILES: CC[C@H](C)[C@H](NC(=O)[C@H](CO)NC(=O)[C@H](Cc1ccc(O)cc1)NC(=O)[C@H](CC(=O)O)NC(=O)[C@H](CO)NC(=O)[C@@H](NC(=O)[C@H](Cc1ccccc1)NC(=O)[C@@H](NC(=O)CNC(=O)[C@H](CCC(=O)O)NC(=O)C(C)(C)NC(=O)[C@@H](N)Cc1ccc(O)cc1)[C@@H](C)O)[C@@H](C)O)C(=O)N[C@@H](Cc1ccc(O)cc1)C(=O)N[C@@H](CC(C)C)C(=O)N[C@@H](CC(=O)O)C(=O)N[C@@H](CCCCN)C(=O)N[C@@H](CCCCN)C(=O)N[C@@H](C)C(=O)N[C@@H](CCC(=O)O)C(=O)N[C@@H](CCCCN)C(=O)N[C@@H](C)C(=O)N[C@@H](Cc1ccccc1)C(=O)N[C@H](C(=O)N[C@@H](CC(N)=O)C(=O)N[C@@H](Cc1c[nH]c2ccccc12)C(=O)N[C@@H](CC(C)C)C(=O)N[C@@H](CC(C)C)C(=O)N[C@@H](C)C(=O)NC(C)(C)C(=O)N[C@@H](CCCCN)C(N)=O)C(C)C
B7: Compound 3 (peptide)
peptide: H-Y[Aib]EGTFTSDYSIALDKIAQRAFVNWLVA[Aib]K-NH2
SMILES: CC[C@H](C)[C@H](NC(=O)[C@H](CCCCN)NC(=O)[C@H](CC(=O)O)NC(=O)[C@H](CC(C)C)NC(=O)[C@H](C)NC(=O)[C@@H](NC(=O)[C@H](CO)NC(=O)[C@H](Cc1ccc(O)cc1)NC(=O)[C@H](CC(=O)O)NC(=O)[C@H](CO)NC(=O)[C@@H](NC(=O)[C@H](Cc1ccccc1)NC(=O)[C@@H](NC(=O)CNC(=O)[C@H](CCC(=O)O)NC(=O)C(C)(C)NC(=O)[C@@H](N)Cc1ccc(O)cc1)[C@@H](C)O)[C@@H](C)O)[C@@H](C)CC)C(=O)N[C@@H](C)C(=O)N[C@@H](CCC(N)=O)C(=O)N[C@@H](CCCNC(=N)N)C(=O)N[C@@H](C)C(=O)N[C@@H](Cc1ccccc1)C(=O)N[C@H](C(=O)N[C@@H](CC(N)=O)C(=O)N[C@@H](Cc1c[nH]c2ccccc12)C(=O)N[C@@H](CC(C)C)C(=O)N[C@H](C(=O)N[C@@H](C)C(=O)NC(C)(C)C(=O)N[C@@H](CCCCN)C(N)=O)C(C)C)C(C)C

Numbered stars: 1 amine (or outer) side, 2 acyl side, 3 side chain; on linkers, the order of the positions; unused ones are H or OH. Square brackets hold non-standard residues; d marks the D form. Side chains are listed from the residue outwards. * marks the point of attachment. C16 diacid = O=C(O)CCCCCCCCCCCCCCC(=O)*; γGlu = O=C(O)[C@H](CCC(=O)[*:2])N[*:1]; Palmitoyl = CCCCCCCCCCCCCCCC(=O)*; Aib = CC(C)(N)C(=O)O

The target in the first assay is T1, human GIP receptor (human, UniProt P48546 22-466).
T1 sequence (looked up): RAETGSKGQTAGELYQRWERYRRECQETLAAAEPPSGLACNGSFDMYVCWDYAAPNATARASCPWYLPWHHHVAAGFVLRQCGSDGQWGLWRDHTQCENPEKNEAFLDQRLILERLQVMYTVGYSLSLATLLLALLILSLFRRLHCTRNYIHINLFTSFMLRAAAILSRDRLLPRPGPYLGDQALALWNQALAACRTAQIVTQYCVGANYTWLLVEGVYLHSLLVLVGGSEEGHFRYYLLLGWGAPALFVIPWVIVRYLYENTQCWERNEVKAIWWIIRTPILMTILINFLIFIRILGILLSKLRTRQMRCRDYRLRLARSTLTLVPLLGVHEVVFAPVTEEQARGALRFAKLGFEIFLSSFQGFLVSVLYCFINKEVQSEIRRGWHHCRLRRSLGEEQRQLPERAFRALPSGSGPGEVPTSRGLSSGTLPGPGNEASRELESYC
Nature of the assay: cell-based or functional assay.
For the molecule B1, the “EC50, cAMP induction in HEK293 cells expressing human GIP R” value is 0.022 nM.
As for B2, the “EC50, cAMP induction in HEK293 cells expressing human GIP R” value was found to be 0.028 nM.
The same measure, in the same setting: with B3 the figure was 0.035 nM; with B4, 0.045 nM; with B5, 0.012 nM.
Still for that read-out and setting: to B6 belongs 0.3 nM.
Regarding B7, the “EC50, cAMP induction in HEK293 cells expressing human GIP R” value was determined as 0.015 nM.

For a further assay, the target named is human GLP-1 receptor (human, UniProt P43220 24-463). Nature of the assay: cell-based or functional assay.
On to B1, for which the “EC50, cAMP induction in HEK293 cells expressing human GLP-1 R” value came out at 0.02 nM.
The same measure, in the same setting: with B2 the figure was 0.022 nM; with B3, 0.031 nM.
Still for that read-out and setting: with B4 the figure was 0.031 nM; with B5, 0.018 nM; with B6, 0.074 nM.
Turning to B7, the “EC50, cAMP induction in HEK293 cells expressing human GLP-1 R” value was determined as 0.022 nM.
